How the values were obtained:
[1] = test system: FLAG-tagged JNK1(Leu-131-Arg) from the pCMV-FLAG vector, expressed in COS cells
[2] = test system: FLAG-tagged wild-type JNK1 from pCMV-FLAG-JNK1, expressed in COS cells
[3] = test system: FLAG-tagged JNK1(Arg-309-Trp) from the pCMV-FLAG vector, expressed in COS cells
[4] = test system: FLAG-tagged JNK1(Tyr-320-His) from the pCMV-FLAG vector, expressed in COS cells
FLAG-tagged JNK1(Tyr-320-His) from the pCMV-FLAG vector, expressed in COS cells, sequence (chain, as listed by the source Y320H): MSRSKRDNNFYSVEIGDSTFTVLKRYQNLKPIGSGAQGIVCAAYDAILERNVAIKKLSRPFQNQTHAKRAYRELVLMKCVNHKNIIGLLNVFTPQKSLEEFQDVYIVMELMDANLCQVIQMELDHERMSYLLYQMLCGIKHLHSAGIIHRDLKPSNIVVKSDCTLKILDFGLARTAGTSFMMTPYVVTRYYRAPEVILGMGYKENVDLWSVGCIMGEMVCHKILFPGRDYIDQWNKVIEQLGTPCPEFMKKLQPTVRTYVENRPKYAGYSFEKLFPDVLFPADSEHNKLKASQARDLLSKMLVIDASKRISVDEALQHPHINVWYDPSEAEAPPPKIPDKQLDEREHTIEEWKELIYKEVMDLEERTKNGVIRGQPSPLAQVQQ

FLAG-tagged JNK1(Leu-131-Arg) from the pCMV-FLAG vector, expressed in COS cells, sequence (chain, as listed by the source L131R): as the sequence (chain, as listed by the source Y320H) above, with L131R, H320Y counted along it
FLAG-tagged JNK1(Arg-309-Trp) from the pCMV-FLAG vector, expressed in COS cells, sequence (chain, as listed by the source R309W): as the sequence (chain, as listed by the source Y320H) above, with R309W, H320Y counted along it
FLAG-tagged wild-type JNK1 from pCMV-FLAG-JNK1, expressed in COS cells, sequence (chain, as listed by the source): as the sequence (chain, as listed by the source Y320H) above, with H320Y counted along it

GST-MKK4(ED), constitutively active form of MKK4
phosphorylation of immunoprecipitated FLAG-JNK by GST-MKK4(ED), in vitro kinase assay with [32P]ATP, autoradiography [1]: the negligible amount of radioactive phosphate incorporated into any of the three JNK mutants was not increased by the presence of active MKK4
phosphorylation of immunoprecipitated FLAG-JNK by GST-MKK4(ED), in vitro kinase assay with [32P]ATP, autoradiography [2]: The presence of active MKK4 increased the phosphorylation of wildtype JNK relative to the autophosphorylation that occurred in the absence of any upstream activator protein
phosphorylation of immunoprecipitated FLAG-JNK by GST-MKK4(ED), in vitro kinase assay with [32P]ATP, autoradiography [3]: the negligible amount of radioactive phosphate incorporated into any of the three JNK mutants was not increased by the presence of active MKK4
phosphorylation of immunoprecipitated FLAG-JNK by GST-MKK4(ED), in vitro kinase assay with [32P]ATP, autoradiography [4]: the negligible amount of radioactive phosphate incorporated into any of the three JNK mutants was not increased by the presence of active MKK4

From patent publication US20080044815
